# Measured values: IntAct's records for PubMed 17255092
# B1: SWI/SNF complex subunit SMARCC1 (Mus musculus), P97496 (parent)
# chain: MAATAGGGPGAAAGAVGAGGAAAASGLAVYRRKDGGPASKFWESPDTVSQLDSVRVWLGKHYKKYVHADAPTNKTLAGLVVQLLQFQEDAFGKHVTNPAFTKLPAKCFMDFKAGGTLCHILGAAYKYKNEQGWRRFDLQNPSRMDRNVEMFMNIEKTLVQNNCLTRPNIYLIPDIDLKLANKLKDIIKRHQGTFTDEKSKASHHIYPYPSSQEDEEWLRPVMRRDKQVLVHWGFYPDSYDTWVHSNDVDAEIEDAPIPEKPWKVHVKWILDTDVFNEWMNEEDYEVDENRKPVSFRQRISTKNEEPVRSPERRDRKASANSRKRKPSPSPPPPTATESRKKSGKKGQASLYGKRRSQKEEDEQEDLTKDMEDPTPVPNIEEVVLPKNVNPKKDSENTPVKGGTVADLDEQDEEAVTTGGKEDEDPSKGDPSRSVDPGEDNVTEQTNHIIIPSYASWFDYNCIHVIERRALPEFFNGKNKSKTPEIYLAYRNFMIDTYRLNPQEYLTSTACRRNLTGDVCAVMRVHAFLEQWGLVNYQVDPESRPMAMGPPPTPHFNVLADTPSGLVPLHLRSPQVPAAQQMLNFPEKNKEKPIDLQNFGLRTDIYSKKTLAKSKGASAGREWTEQETLLLLEALEMYKDDWNKVSEHVGSRTQDECILHFLRLPIEDPYLENSDASLGPLAYQPVPFSQSGNPVMSTVAFLASVVDPRVASAAAKAALEEFSRVREEVPLELVEAHVKKVQEAARASGKVDPTYGLESSCIAGTGPDEPEKLEGSEEEKMETDPDGQQPEKAENKVENESDEGDKIQDRENEKNTEKEQDSDVSEDVKPEEKENEENKELTDTCKERESDAGKKKVEHEISEGNVATAAAAALASAATKAKHLAAVEERKIKSLVALLVETQMKKLEIKLRHFEELETIMDREKEALEQQRQQLLTERQNFHMEQLKYAELRARQQMEQQQQHGQTPQQAHQHTGGPGMAPLGATGHPGMMPHQQPPPYPLMHHQMPPPHPPQPGQIPGPGSMMPGQPMPGRMIPAVAANIHPTGSGPTPPGMPPMPGNILGPRVPLTAPNGMYPPPPQQQQPPPPADGVPPPPAPGPPASATP
# Variants of: B1
# Settings: with snf5_mouse Smarcb1, Q9Z0H3
# Chain of snf5_mouse Smarcb1, Q9Z0H3 (Q9Z0H3 whole entry): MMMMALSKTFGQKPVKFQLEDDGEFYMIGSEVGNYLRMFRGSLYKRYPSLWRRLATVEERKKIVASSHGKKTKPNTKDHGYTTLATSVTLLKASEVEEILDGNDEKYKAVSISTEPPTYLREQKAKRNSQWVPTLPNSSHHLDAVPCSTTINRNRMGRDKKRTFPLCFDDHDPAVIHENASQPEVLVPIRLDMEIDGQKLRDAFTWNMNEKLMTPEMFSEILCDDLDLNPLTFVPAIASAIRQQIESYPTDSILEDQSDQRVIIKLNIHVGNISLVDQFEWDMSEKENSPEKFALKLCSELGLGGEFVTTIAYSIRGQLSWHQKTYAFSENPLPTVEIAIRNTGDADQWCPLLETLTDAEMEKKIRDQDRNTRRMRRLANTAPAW
row,effect of a mutation on the interaction,Variant
1,decreasing interaction,N535A
2,disrupting interaction,L533A;N535A
3,decreasing interaction,L533A

# Variants of: B1
# Settings: with snf5_mouse Smarcb1, Q9Z0H3
# Remark: another data set of the same source
row,effect of a mutation on the interaction,Variant
1,disrupting interaction strength,L533A;N535A
